Common to all, as to details: tags: TnT T7 reticulocyte lysate from pCMX-hRORα1
The target of data set [1] is T1, hRORα1 (RORA isoform 1) (Homo sapiens, UniProt P35398 P35398:1-523).
T1 sequence: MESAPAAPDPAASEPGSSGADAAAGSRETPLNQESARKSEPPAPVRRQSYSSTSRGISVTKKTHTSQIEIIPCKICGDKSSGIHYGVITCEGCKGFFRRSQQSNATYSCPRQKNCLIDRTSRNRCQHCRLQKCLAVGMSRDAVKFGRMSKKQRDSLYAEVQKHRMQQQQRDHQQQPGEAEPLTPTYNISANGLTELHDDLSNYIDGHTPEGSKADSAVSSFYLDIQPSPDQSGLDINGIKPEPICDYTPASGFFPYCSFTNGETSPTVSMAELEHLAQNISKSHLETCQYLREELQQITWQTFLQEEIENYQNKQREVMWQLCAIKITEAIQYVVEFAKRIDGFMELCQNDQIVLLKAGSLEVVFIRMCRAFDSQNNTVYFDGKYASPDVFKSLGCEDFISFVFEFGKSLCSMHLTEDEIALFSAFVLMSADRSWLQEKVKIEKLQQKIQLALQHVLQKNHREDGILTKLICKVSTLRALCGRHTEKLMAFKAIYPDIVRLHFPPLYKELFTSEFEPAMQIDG
Nature of the data set: competition; unlabelled competitor 10-100x.

Data set [2] concerns the target T1, hRORα1 (RORA isoform 1). Kind of data set: competition; unlabelled competitor 10-100x. The procedure: (§1) During the competition experiments, increasing concentrations of nonlabelled double-stranded oligo-nucleotides (molar excess of 10 to 100 fold) were added to the mixtures and incubated for 15 min at room temperature before the addition of the radioactive probes. After addition of the radioactive probes, the reticulocyte lysates were added to the mixture and incubated for 15 min at room temperature before the separation of the protein/DNA complexes by electrophoresis on a polyacrylamide gel (4%) in a 0.25× Tris-borate-EDTA buffer at room temperature (50).
In this figure, fragment −90/−64 of the promoter of the human gene for apo C-III was phosphorylated at the 5' ends with polynucleotide kinase in the presence of [γ-^32P]ATP. This probe was incubated in the presence of reticuloycte lysate ("TNT-T7", Promega) programmed to express the hRORα1 receptor according to the protocol defined by the manufacturer or in the presence of control lysate. The DNA/protein complexes were then separated on nondenaturing polyacrylamide gel. After drying, the gel is subjected to autoradiography. The first lane of the gel corresponds to the migration of the probe incubated in the presence of control lysate. The other lanes correspond to the migration of the probe incubated in the presence of lysate programmed to express hRORα1. […]
This is another data set of the same source.

Data set [3] addresses T1, hRORα1 (RORA isoform 1). Kind of data set: competition; 10-100x excess does not compete. The procedure: as §1
In FIG. 7, the −198/+24 fragment of the promoter of the human gene for apo C-III was amplified by PCR with the aid of the primers 82 and 512 (Table 1) previously phosphoryiated at the 5' end by poly-nucleotide kinase in the presence of [γ-^32P]ATP. This probe was incubated in the presence of reticulocyte lysate (TNT-T7, Promega) programmed to express the hRORα1 receptor according to the protocol defined by the manufacturer or in the presence of control lysate. The DNA/protein complexes were then separated on a non denaturing polyacrylamide gel. After drying, the gel is subjected to autoradiography. The first lane of the gel corresponds to the migration of the probe alone. The second lane corresponds to the migration of the probe incubated in the presence of the control lysate. […]

B1: rAITaTaWT (-36/-12) (dsDNA)
DNA 1: GATCCACACATATATAGGTCAGGGAAGAAGA
DNA 2: GATCTCTTCTTCCCTGACCTATATATGTGTG
As to B1, the binding result with hRORα1 (RORA isoform 1) [1] is on record as “binds”.

B2: RORECons (dsDNA)
DNA 1: GATCTTGACCTACATTCTAAGCTG
DNA 2: GATCCAGCTTAGAATGTAGGTCAA
As for B2, in the data set with hRORα1 (RORA isoform 1) [2], the binding result is “binds”.

B3: hCIIITaTaKO (-33/-10) (dsDNA)
DNA 1: GATCGATATAAAACAGGCAGGAACCCTC
DNA 2: GATCGAGGGTTCCTGCCTGTTTTATATC
Consider B3, for which, in the data set with hRORα1 (RORA isoform 1) [3], the binding result was “no binding”.

The record behind these values is patent US6998254, “Use of ROR for receptors for screening substances useful for the treatment of atherosclerosis” (Merck Patent Gesellschaft).
